Experimental data published in publication PMC4579036.
Where two headings read alike, the source gives them in different places.

What was measured:
Assay in all cases: competition
[1] = biological target: T1, Fis (Escherichia coli, UniProt P0A6R3 1-98)
[2] = biological target: T1, Fis; remark: listed apart in the source
[3] = biological target: T1, Fis; remark: listed apart in the source

T1 sequence (P0A6R3 whole entry): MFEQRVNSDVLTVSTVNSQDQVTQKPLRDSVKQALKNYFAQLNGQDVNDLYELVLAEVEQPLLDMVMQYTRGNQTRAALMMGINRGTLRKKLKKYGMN

B1: F1 (dsDNA)
DNA 1: AAATTTGTTTGAATTTTGAGCAAATTT
DNA 2: AAATTTGCTCAAAATTCAAACAAATTT
B1: binds [1].

B2: F28 (dsDNA)
DNA 1: AAATTTGTTTGAGCGTTGAGCAAATTT
DNA 2: AAATTTGCTCAACGCTCAAACAAATTT
B2: binds [2].

B3: F29 (dsDNA)
DNA 1: AAATTTGTTTGGGCGCTGAGCAAATTT
DNA 2: AAATTTGCTCAGCGCCCAAACAAATTT
B3: binds [3].
